Assay results taken from patent publication CN108264566A (SHANGHAI XINBAINUO BIOTECHNOLOGY CO LTD, dated 2018).

Tests used:
CD3-B7RP-1BsM_D = target: T1, CD3-B7RP-1BsM_D; assay: ELISA, plate coated with 1 μg/ml ICOS-hFc, binder titrated from 10 μg/ml
T1 construct: Glycosylated, disulfide-linked homodimer through the IgD hinge linker; made in CHO-S cells; also called 二聚体形式的抗CD3/B7RP-1双特异性分子

CD3-B7RP-1BsM_M = target: T2, CD3-B7RP-1BsM_M; assay: as above
T2 construct: made in CHO-S cells; also called 单体形式的抗CD3/B7RP-1双特异性分子

CD3-OX40L BsM_M = target: T3, CD3-OX40L BsM_M; assay: ELISA, plate coated with 1 μg/ml OX40-hFc, binder titrated from 10 μg/ml
T3 construct: made in CHO-S cells; also called 单体形式的抗CD3/OX40L双特异性分子

CD3-OX40L BsM_D = target: T4, CD3-OX40L BsM_D; assay: as above
T4 construct: Glycosylated, disulfide-linked homodimer through the IgD hinge linker; made in CHO-S cells; also called 二聚体形式的抗CD3/OX40L双特异性分子

CD3-CD70BsM_M = target: T5, CD3-CD70BsM_M; assay: ELISA, plate coated with 1 μg/ml CD27-hFc, binder titrated from 10 μg/ml
T5 construct: made in CHO-S cells; also called 单体形式的抗CD3/CD70双特异性分子

CD3-CD70BsM_D = target: T6, CD3-CD70BsM_D; assay: as above
T6 construct: Glycosylated, disulfide-linked homodimer through the IgD hinge linker; made in CHO-S cells; also called 二聚体形式的抗CD3/CD70双特异性分子

CD3-GITRL BsM_D = target: T7, CD3-GITRL BsM_D; assay: ELISA, plate coated with 1 μg/ml GITR-hFc, binder titrated from 10 μg/ml
T7 construct: Glycosylated, disulfide-linked homodimer through the IgD hinge linker; made in CHO-S cells; also called 二聚体形式的抗CD3/GITRL双特异性分子

CD3-GITRL BsM_M = target: T8, CD3-GITRL BsM_M; assay: as above
T8 construct: made in CHO-S cells; also called 单体形式的抗CD3/GITRL双特异性分子

B1: 人类ICOS-hFc融合蛋白 (Fc fusion)
chain: EINGSANYEMFIFHNGGVQILCKYPDIVQQFKMQLLKGGQILCDLTKTKGSGNTVSIKSLKFCHSQLSNNSVSFFLYNLDHSHANYYFCNLSIFDPPPFKVTLTGGYLHIYESQLCCQLK
notes: Bought fusion protein; also called 重组蛋白ICOS-hFc; not shown: human Fc (hFc) of the bought fusion protein
- binding result (CD3-B7RP-1BsM_D): binds
- binding result (CD3-B7RP-1BsM_M): binds

B2: 人类OX40-hFc融合蛋白 (Fc fusion)
chain: LHCVGDTYPSNDRCCHECRPGNGMVSRCSRSQNTVCRPCGPGFYNDVVSSKPCKPCTWCNLRSGSERKQLCTATQDTVCRCRAGTQPLDSYKPGVDCAPCPPGHFSPGDNQACKPWTNCTLAGKHTLQPASNSSDAICEDRDPPATQPQETQGPPARPITVQPTEAWPRTSQGPSTRPVEVPGGRA
notes: Bought fusion protein; also called 重组蛋白OX40-hFc; not shown: human Fc (hFc) of the bought fusion protein
- binding result (CD3-OX40L BsM_M): binds
- binding result (CD3-OX40L BsM_D): binds

B3: 人类CD27-hFc融合蛋白 (Fc fusion)
chain: ATPAPKSCPERHYWAQGKLCCQMCEPGTFLVKDCDQHRKAAQCDPCIPGVSFSPDHHTRPHCESCRHCNSGLLVRNCTITANAECACRNGWQCRDKECTECDPLPNPSLTARSSQALSPHPQPTHLPYVSEMLEARTAGHMQTLADFRQLPARTLSTHWPPQRSLCSSDFIR
notes: Bought fusion protein; also called 重组蛋白CD27-hFc; not shown: human Fc (hFc) of the bought fusion protein
- binding result (CD3-CD70BsM_M): binds
- binding result (CD3-CD70BsM_D): binds

B4: 人类GITR-hFc融合蛋白 (Fc fusion)
chain: QRPTGGPGCGPGRLLLGTGTDARCCRVHTTRCCRDYPGEECCSEWDCMCVQPEFHCGDPCCTTCRHHPCPPGQGVQSQGKFSFGFQCIDCASGTFSGGHEGHCKPWTDCTQFGFLTVFPGNKTHNAVCVPGSPPAEP
notes: Bought fusion protein; also called 重组蛋白GITR-hFc; not shown: human Fc (hFc) of the bought fusion protein
- binding result (CD3-GITRL BsM_D): binds
- binding result (CD3-GITRL BsM_M): binds
